Measured values: patent US20240287172A1 (SCIRHOM, published 2024)
Residue numbers refer to the chain shown, from its start.

Target: T1, hiR2-FL-S607R-T7 (human, UniProt Q6PJF5 1-856)
T1 sequence: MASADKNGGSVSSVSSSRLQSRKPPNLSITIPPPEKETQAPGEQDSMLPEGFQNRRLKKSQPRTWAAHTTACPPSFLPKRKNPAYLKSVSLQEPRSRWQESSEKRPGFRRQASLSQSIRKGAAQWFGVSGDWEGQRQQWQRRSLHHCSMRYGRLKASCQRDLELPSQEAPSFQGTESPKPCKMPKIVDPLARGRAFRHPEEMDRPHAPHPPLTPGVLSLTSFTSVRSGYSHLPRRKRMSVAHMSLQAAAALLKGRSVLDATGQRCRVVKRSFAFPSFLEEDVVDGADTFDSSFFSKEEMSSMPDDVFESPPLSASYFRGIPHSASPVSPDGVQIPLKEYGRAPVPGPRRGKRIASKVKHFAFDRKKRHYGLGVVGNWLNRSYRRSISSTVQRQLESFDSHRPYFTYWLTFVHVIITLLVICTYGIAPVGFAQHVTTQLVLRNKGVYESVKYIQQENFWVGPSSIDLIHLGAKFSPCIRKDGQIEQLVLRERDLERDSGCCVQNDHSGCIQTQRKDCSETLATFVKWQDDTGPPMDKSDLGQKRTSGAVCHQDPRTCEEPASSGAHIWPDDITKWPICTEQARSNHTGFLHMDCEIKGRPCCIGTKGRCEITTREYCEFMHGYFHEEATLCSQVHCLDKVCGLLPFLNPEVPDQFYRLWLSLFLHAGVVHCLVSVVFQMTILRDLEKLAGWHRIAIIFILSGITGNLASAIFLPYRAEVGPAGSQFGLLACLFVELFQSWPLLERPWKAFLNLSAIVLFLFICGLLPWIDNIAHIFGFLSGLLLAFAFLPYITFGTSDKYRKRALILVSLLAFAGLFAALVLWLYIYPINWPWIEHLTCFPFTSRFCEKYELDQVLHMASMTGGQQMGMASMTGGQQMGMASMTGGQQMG
Test: FACS, MEF-DKO cells, 3 µg/ml
Summary of the method: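 MEF-DKO cells expressing T7-tagged full-length hiR2 point mutants were stained on ice for 1 h with purified antibodies at 3 μg/ml in FACS buffer. Detection used PE-conjugated goat anti-mouse IgG F(ab′)2 (1:100, 1 h on ice), read by flow cytometry; buffer-only wells served as controls.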

B1: antibody 48 (antibody, V domains shown)
VH: QVQLQQSGTELVRPGTSVKVSCKASGYAFTNYLIEWVKQRPGQGLEWIGVINPGSGFTKYNEKFKGKATLTADKSSSTVYMHLSSLTSEDSAVYFCARGLYRAMDYWGQGTSVTVSS
VL: DIQMTQSPASQSASLGESVTITCLASQTIATWLAWYQQKPGKSPQLLIYGATTLADGVPSRFSGGGSGTKFSFKISSLQAEDFVSYYCQQLYSTPYTFGGGTKLEIK
notes: mouse IgG, kappa light chain; also called clone #48; purified antibody 48
With B1 the “loss of binding vs wild type” value was no less than 30%.

B2: antibody 50 (antibody, V domains shown)
VH: B1 VH with T9A, T16A, T30S, V79A, H82Q
VL: B1 VL with A30G, G50A, T52A, T53S, S85N, L91I
notes: mouse IgG, kappa light chain; also called clone #50; purified antibody 50
In the case of B2, the “loss of binding vs wild type” value is reported as no less than 30%.
